± gives the standard deviation of the averaged measurements.
Test system: ATP
Experiment: switch fluorescence ratio, 500 uM ATP over buffer (Cy3 cluster intensity, sum of 5 cycles each) (fold (ratio)); higher = stronger signal-on switching upon ATP binding; sequences stand for … in TCGTCGGCAGCGTCAGATGTGTATAAGAGACAGTTTTTTTTTTTTTTTTTTTTTTTTT…TC
Conditions: aptamer strand: ATP DNA aptamer (quencher-CACCTGGGGGAGTATTGCGGAGGAAGG + anchor), 100 nM annealed; ATP concentration: 500 uM
Summary of the method: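 For every switch-domain sequence, the fluorescence ratio is the mean of per-cluster values, each being summed target-cycle Cy3 intensity over summed buffer-cycle Cy3 intensity. Clusters outside 100-1000 RFU were excluded. On a modified Illumina MiSeq flow-cell, the Cy3-labelled switching-strand clusters were annealed to 100 nM quencher-labelled ATP aptamer, imaged in selection buffer and then after 15 min with 500 uM ATP at 22 °C. Five such cycles were run, with NaOH stripping and re-annealing between them.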
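Further: ATP exposure 15 min at 22 °C before imaging.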

Row | Sequence | switch fluorescence ratio
1 | GCCTAAATGC | 1.44 ± 0.28
2 | GCCTAATGGT | 0.993 ± 0.016
3 | GCCTATGAGG | 0.993 ± 0.038
4 | GCCTATTGTT | 0.983 ± 0.02
5 | GCCTCAGGGT | 1.08 ± 0.02
6 | GCCTCCAGTT | 1.15 ± 0.025
7 | GCCTCTGGTG | 1.33 ± 0.035
8 | GCCTGAACTT | 1.03 ± 0.006
9 | GCCTGATACA | 1.02 ± 0.031
10 | GCCTGCCCCG | 1.69 ± 0.026
11 | GCCTGGACGA | 1.04 ± 0.018
12 | GCCTGGGAAG | 0.976 ± 0.036
13 | GCCTGGGGAA | 0.9844 ± 0.0087
14 | GCCTGGGTTC | 0.985 ± 0.02
15 | GCCTGGTTGT | 1.02 ± 0.013
16 | GCCTTGGGAA | 1.02 ± 0.028
17 | GCCTTGTGCA | 0.995 ± 0.017
18 | GCCTTTCTGA | 0.9855 ± 0.0061
19 | GCCTTTGTAA | 1.09 ± 0.056
20 | GCCTTTTGTT | 0.995 ± 0.027
21 | GCGAAAAAGA | 0.98 ± 0.031
22 | GCGAAAAATA | 1.0196 ± 0.00067
23 | GCGAAAGGGA | 1.02 ± 0.036
24 | GCGAACGGGG | 1.01 ± 0.049
25 | GCGAAGGTCA | 1.01 ± 0.012

Row | Sequence | switch fluorescence ratio
26 | GCGACACACT | 1.47 ± 0.058
27 | GCGACATAGG | 0.964 ± 0.042
28 | GCGACATGAT | 1.025 ± 0.0011
29 | GCGACTTGGG | 1.04 ± 0.054
30 | GCGAGAGCTA | 0.9602 ± 0.0021
31 | GCGAGGGGCA | 0.992 ± 0.025
32 | GCGAGGGTCT | 1.01 ± 0.027
33 | GCGAGTACCG | 1.02 ± 0.032
34 | GCGAGTTCTA | 0.963 ± 0.025
35 | GCGATAAAGC | 1.03 ± 0.041
36 | GCGATGAATC | 1.04 ± 0.04
37 | GCGATGCCTC | 1.09 ± 0.043
38 | GCGATGTATA | 1.02 ± 0.013
39 | GCGATGTTTG | 0.998 ± 0.023
40 | GCGATTAAGG | 0.9904 ± 0.0013
41 | GCGATTAGAG | 1 ± 0.02
42 | GCGATTATCT | 1.002 ± 0.0064
43 | GCGATTCGGG | 0.978 ± 0.01
44 | GCGATTGAGC | 0.9808 ± 0.004
45 | GCGATTTTTT | 0.974 ± 0.021
46 | GCGCAGTACG | 4.91 ± 0.71
47 | GCGCATTGTT | 1.026 ± 0.0094
48 | GCGCCAGGCG | 0.998 ± 0.025
49 | GCGCCCAACT | 1.03 ± 0.035
50 | GCGCCCGTGG | 1.01 ± 0.034

Row | Sequence | switch fluorescence ratio
51 | GCGCCCTGTG | 1.122 ± 0.0062
52 | GCGCGAAGGA | 1.03 ± 0.053
53 | GCGCGCGTTC | 1.03 ± 0.045
54 | GCGCGGAGGA | 1.03 ± 0.029
55 | GCGCGGGGGA | 1.02 ± 0.025
56 | GCGCGGTGGC | 1.09 ± 0.015
57 | GCGCGTTAGC | 1.007 ± 0.0014
58 | GCGCTGGGGG | 1.07 ± 0.081
59 | GCGCTTGCTC | 1.13 ± 0.013
60 | GCGCTTTTGC | 1.04 ± 0.061
61 | GCGGAATATG | 1.13 ± 0.018
62 | GCGGAATGCT | 1.2 ± 0.32
63 | GCGGACCGGG | 1.04 ± 0.031
64 | GCGGAGGGGG | 1 ± 0.035
65 | GCGGAGGGGT | 1.02 ± 0.049
66 | GCGGATAAGC | 1.01 ± 0.039
67 | GCGGATGAGC | 0.995 ± 0.013
68 | GCGGATGGCA | 1 ± 0.038
69 | GCGGCACGGG | 1.02 ± 0.054
70 | GCGGCGGAAG | 1.025 ± 0.0042
71 | GCGGGAACGG | 0.992 ± 0.017
72 | GCGGGAAGGG | 0.995 ± 0.033
73 | GCGGGAGTTT | 0.9667 ± 0.0015
74 | GCGGGATTGG | 1.001 ± 0.0077
75 | GCGGGCAAGT | 0.9903 ± 0.00062

Row | Sequence | switch fluorescence ratio
76 | GCGGGCACCA | 0.995 ± 0.024
77 | GCGGGCGCCC | 1.011 ± 0.006
78 | GCGGGCGTTC | 1.0164 ± 0.0005
79 | GCGGGCTAAC | 1.17 ± 0.24
80 | GCGGGGAGCG | 1.001 ± 0.0031
81 | GCGGGGCCAT | 1.02 ± 0.028
82 | GCGGGGCCCA | 1.01 ± 0.013
83 | GCGGGGCCTG | 0.993 ± 0.051
84 | GCGGGGCTCA | 1.12 ± 0.11
85 | GCGGGGGAAC | 1.018 ± 0.0055
86 | GCGGGGGACC | 1.011 ± 0.0051
87 | GCGGGGGATG | 1.01 ± 0.034
88 | GCGGGGGCAG | 0.993 ± 0.013
89 | GCGGGGGCAT | 0.964 ± 0.012
90 | GCGGGGGCGC | 0.985 ± 0.016
91 | GCGGGGGGAC | 1.01 ± 0.015
92 | GCGGGGGGGG | 1.02 ± 0.041
93 | GCGGGGGTAC | 1.11 ± 0.077
94 | GCGGGGTTTT | 1.01 ± 0.029
95 | GCGGGTCGGG | 0.969 ± 0.054
96 | GCGGTACAGC | 0.9782 ± 0.0069
97 | GCGGTAGACG | 1.01 ± 0.021
98 | GCGGTAGTTT | 0.9974 ± 0.0066
99 | GCGGTGACCG | 0.9978 ± 0.0046
100 | GCGGTGAGAT | 0.989 ± 0.012

Row | Sequence | switch fluorescence ratio
101 | GCGGTGGACG | 0.947 ± 0.077
102 | GCGGTGGGGA | 1.03 ± 0.027
103 | GCGGTTAAGG | 0.9577 ± 0.006
104 | GCGGTTCTC | 1.03 ± 0.029
105 | GCGGTTGCGT | 0.971 ± 0.057
106 | GCGTAAATTG | 0.9923 ± 0.0053
107 | GCGTAAGTG | 0.986 ± 0.041
108 | GCGTACTGTG | 0.994 ± 0.022
109 | GCGTAGAGCG | 0.9878 ± 0.0012
110 | GCGTATTCTA | 1 ± 0.033
111 | GCGTCAACTC | 1.1 ± 0.016
112 | GCGTCACGTC | 1.05 ± 0.054
113 | GCGTCCACCA | 1.03 ± 0.067
114 | GCGTCCACGG | 1.017 ± 0.01
115 | GCGTCCCGTG | 0.985 ± 0.11
116 | GCGTCCGCTG | 1.22 ± 0.039
117 | GCGTCGGGGG | 1.01 ± 0.028
118 | GCGTGACCGC | 0.995 ± 0.04
119 | GCGTGACGTA | 1 ± 0.088
120 | GCGTGCAGGA | 1.027 ± 0.01
121 | GCGTGCATTC | 1.05 ± 0.017
122 | GCGTGCGTGT | 1.03 ± 0.032
123 | GCGTGTCCGT | 1.01 ± 0.025
124 | GCGTGTCTAT | 0.991 ± 0.019
125 | GCGTTAATAA | 1.06 ± 0.038

Row | Sequence | switch fluorescence ratio
126 | GCGTTCAGGT | 1.01 ± 0.02
127 | GCGTTCCTTG | 1.071 ± 0.0017
128 | GCGTTGAGGA | 1.04 ± 0.08
129 | GCGTTGGAGC | 0.9949 ± 0.0072
130 | GCGTTGGCCA | 1.01 ± 0.016
131 | GCGTTGTGTG | 1.02 ± 0.027
132 | GCGTTGTTTG | 0.958 ± 0.042
133 | GCGTTTAGAA | 0.987 ± 0.036
134 | GCGTTTCGGG | 0.968 ± 0.018
135 | GCGTTTGCCC | 1.06 ± 0.072
136 | GCGTTTTTTG | 0.9912 ± 0.0054
137 | GCTAAAGTCG | 0.9814 ± 0.005
138 | GCTAACGGCA | 0.994 ± 0.03
139 | GCTAATAAAT | 1.046 ± 0.0035
140 | GCTAATATTA | 1.03 ± 0.021
141 | GCTACACGGC | 1.02 ± 0.033
142 | GCTACACTGA | 1.04 ± 0.023
143 | GCTACAGCAT | 1.06 ± 0.031
144 | GCTACCACTC | 1.089 ± 0.01
145 | GCTACCCATC | 1.1 ± 0.05
146 | GCTACTTTTG | 0.998 ± 0.027
147 | GCTAGAAGTA | 1.02 ± 0.049
148 | GCTAGAGGGT | 1.02 ± 0.027
149 | GCTAGCAATG | 0.982 ± 0.037
150 | GCTAGCTGGT | 0.989 ± 0.021

Row | Sequence | switch fluorescence ratio
151 | GCTAGGAAGT | 0.983 ± 0.022
152 | GCTAGGACGT | 0.997 ± 0.03
153 | GCTAGGGTAG | 1.03 ± 0.058
154 | GCTAGTGCTA | 0.996 ± 0.04
155 | GCTATAGTCG | 1.022 ± 0.0027
156 | GCTATCATGG | 0.9727 ± 0.0076
157 | GCTATCTCTT | 1.01 ± 0.012
158 | GCTATTGGTG | 1.06 ± 0.019
159 | GCTATTGTTC | 0.967 ± 0.039
160 | GCTATTTAGG | 1 ± 0.024
161 | GCTCAAAGCT | 1.01 ± 0.043
162 | GCTCATTATT | 1.014 ± 0.0015
163 | GCTCCAATCG | 1.13 ± 0.049
164 | GCTCCAGGGG | 2.88 ± 2.5
165 | GCTCCAGGTA | 1.577 ± 0.0021
166 | GCTCCATTTG | 0.983 ± 0.021
167 | GCTCCCTTTC | 1.84 ± 0.08
168 | GCTCCTAAAA | 1.1039 ± 0.00034
169 | GCTCGAGTTG | 0.9967 ± 0.0094
170 | GCTCGATTGG | 0.9766 ± 0.0057
171 | GCTCGCCGAT | 1.01 ± 0.016
172 | GCTCGCCTTA | 0.999 ± 0.039
173 | GCTCGGCCCG | 1.04 ± 0.061
174 | GCTCGGGTTG | 0.984 ± 0.041
175 | GCTCGTTAGG | 0.995 ± 0.029

Row | Sequence | switch fluorescence ratio
176 | GCTCTCATAT | 1.027 ± 0.0086
177 | GCTCTGAGGG | 1.056 ± 0.009
178 | GCTCTGTGGG | 0.967 ± 0.024
179 | GCTCTGTGTT | 0.993 ± 0.017
180 | GCTCTGTTTT | 1 ± 0.011
181 | GCTCTTGACA | 1 ± 0.011
182 | GCTCTTGGTT | 1.02 ± 0.045
183 | GCTGAAGGCT | 0.962 ± 0.03
184 | GCTGAAGGGT | 1.012 ± 0.0019
185 | GCTGAATAAT | 1.01 ± 0.029
186 | GCTGAATTTG | 0.989 ± 0.058
187 | GCTGAGGCAA | 1.06 ± 0.015
188 | GCTGAGGCAG | 1.002 ± 0.0046
189 | GCTGAGGGGA | 1.03 ± 0.049
190 | GCTGAGGGGG | 0.991 ± 0.041
191 | GCTGATAATG | 0.978 ± 0.014
192 | GCTGATGCGT | 1.01 ± 0.038
193 | GCTGATTGGC | 1.05 ± 0.13
194 | GCTGATTTGT | 0.989 ± 0.038
195 | GCTGCAGATT | 0.988 ± 0.03
196 | GCTGCAGGGT | 0.9922 ± 0.009
197 | GCTGCCGTGT | 0.967 ± 0.064
198 | GCTGCGGGAT | 1.16 ± 0.15
199 | GCTGCGGGG | 1.01 ± 0.053
200 | GCTGCTGGGC | 0.968 ± 0.036
